We go through 8 molecules from patent US20240376185A1 (SMIVET B V, published 2024).

In assay [1] the target is T1, tetanus neurotoxin (TeNT), authentic tetanus holotoxin (Clostridium tetani, UniProt P04958 2-1315). The assay can be described thus: GT1b-TeNT inhibition ELISA (no SDA: 1.302, 1.257). (In an ELISA, binding on a coated surface is turned into a signal by an enzyme label.)
T1 sequence (P04958 2-457 limits assumed, chain 1 of 2): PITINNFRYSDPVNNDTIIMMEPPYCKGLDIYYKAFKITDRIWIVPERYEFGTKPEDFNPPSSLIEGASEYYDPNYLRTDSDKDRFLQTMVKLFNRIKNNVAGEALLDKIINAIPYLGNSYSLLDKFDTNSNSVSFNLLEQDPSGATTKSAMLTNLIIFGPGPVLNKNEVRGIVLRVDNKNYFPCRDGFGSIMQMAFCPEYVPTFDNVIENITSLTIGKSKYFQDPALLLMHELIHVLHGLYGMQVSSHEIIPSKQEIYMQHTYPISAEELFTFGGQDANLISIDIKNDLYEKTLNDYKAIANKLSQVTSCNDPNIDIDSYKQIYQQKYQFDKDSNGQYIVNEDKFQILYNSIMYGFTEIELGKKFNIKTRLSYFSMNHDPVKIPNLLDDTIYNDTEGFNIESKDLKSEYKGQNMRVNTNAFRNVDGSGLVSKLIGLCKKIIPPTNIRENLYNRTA
T1 sequence (P04958 458-1315 limits assumed, chain 2 of 2): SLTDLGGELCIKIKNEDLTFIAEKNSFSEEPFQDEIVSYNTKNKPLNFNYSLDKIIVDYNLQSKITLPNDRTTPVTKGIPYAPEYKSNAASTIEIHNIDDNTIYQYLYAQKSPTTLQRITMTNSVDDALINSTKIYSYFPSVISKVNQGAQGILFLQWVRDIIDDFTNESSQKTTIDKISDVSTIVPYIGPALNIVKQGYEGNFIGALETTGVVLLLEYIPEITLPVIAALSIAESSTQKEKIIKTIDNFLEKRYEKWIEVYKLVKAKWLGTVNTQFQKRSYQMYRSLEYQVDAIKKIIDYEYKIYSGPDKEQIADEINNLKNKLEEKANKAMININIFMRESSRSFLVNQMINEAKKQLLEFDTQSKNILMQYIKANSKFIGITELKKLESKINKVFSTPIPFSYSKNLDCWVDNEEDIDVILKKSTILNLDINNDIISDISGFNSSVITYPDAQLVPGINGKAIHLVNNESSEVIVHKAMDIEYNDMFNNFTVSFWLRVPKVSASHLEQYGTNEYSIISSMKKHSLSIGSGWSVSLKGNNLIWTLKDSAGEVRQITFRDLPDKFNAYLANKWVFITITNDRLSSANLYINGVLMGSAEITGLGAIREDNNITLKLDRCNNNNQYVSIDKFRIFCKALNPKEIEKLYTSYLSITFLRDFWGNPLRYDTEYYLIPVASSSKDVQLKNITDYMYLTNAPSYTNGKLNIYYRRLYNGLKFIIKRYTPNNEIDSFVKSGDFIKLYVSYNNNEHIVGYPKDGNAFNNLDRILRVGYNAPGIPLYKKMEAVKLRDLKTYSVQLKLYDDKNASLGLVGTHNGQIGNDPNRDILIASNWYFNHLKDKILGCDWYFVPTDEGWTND
The target in assay [2] is T1, tetanus neurotoxin (TeNT), authentic …. The assay is described as follows: ELISA, directly coated TeNT, E. coli supernatant.
In assay [3] the target is T2, recombinant tetanus toxin fragment C (rTTC) (Clostridium tetani, UniProt P04958 865-1315).
T2 sequence: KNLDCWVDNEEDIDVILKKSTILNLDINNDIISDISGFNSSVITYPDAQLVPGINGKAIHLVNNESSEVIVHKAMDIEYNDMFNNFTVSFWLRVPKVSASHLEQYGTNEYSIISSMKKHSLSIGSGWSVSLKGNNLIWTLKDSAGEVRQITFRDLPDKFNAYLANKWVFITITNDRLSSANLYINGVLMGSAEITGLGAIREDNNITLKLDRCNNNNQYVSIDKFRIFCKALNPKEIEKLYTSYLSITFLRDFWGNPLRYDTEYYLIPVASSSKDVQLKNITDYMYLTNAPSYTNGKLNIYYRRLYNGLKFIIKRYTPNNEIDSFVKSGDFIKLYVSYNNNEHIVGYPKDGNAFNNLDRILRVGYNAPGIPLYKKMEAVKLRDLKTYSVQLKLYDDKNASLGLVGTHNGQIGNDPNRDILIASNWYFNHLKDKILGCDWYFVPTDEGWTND
The assay can be described thus: ELISA, directly coated rTTC.

In assay [4] the target is T2, recombinant tetanus toxin fragment C …. The assay can be described thus: ELISA, directly coated rTTC, E. coli supernatant.
Assay [5] concerns the target T1, tetanus neurotoxin (TeNT), authentic …. The assay can be described thus: ELISA, cAb-TT2 captured TeNT, E. coli supernatant.
In assay [6] the target is T3, tetanus neurotoxin (TeNT), authentic tetanus holotoxin (Clostridium tetani, UniProt P04958 2-1315). The assay is described as follows: ELISA: directly coated TeNT, anti-his6 PO.
Target sequence in this assay (P04958 2-457 limits assumed, chain 1 of 2): as the sequence (P04958 2-457 limits assumed, chain 1 of 2) above
Target sequence in this assay (P04958 458-1315 limits assumed, chain 2 of 2): as the sequence (P04958 458-1315 limits assumed, chain 2 of 2) above
Assay [7] has as its target T4, horse albumin (horse Alb) (horse, UniProt P35747 25-607). The assay can be described thus: bridging ELISA: cAb-TT2-captured TeNT, SDA, biotinylated horse Alb, StrepPO.
The target in assay [8] is T4, horse albumin (horse Alb). The assay is described as above. This is another data set of the same source.
For assay [9], the target named is T3, tetanus neurotoxin (TeNT), authentic …. The assay is described as follows: ELISA: directly coated TeNT, anti-his6 PO. The source holds these as a separate data set.
Target sequence in this assay (P04958 2-457 limits assumed, chain 1 of 2): as the sequence (P04958 2-457 limits assumed, chain 1 of 2) above
Target sequence in this assay (P04958 458-1315 limits assumed, chain 2 of 2): as the sequence (P04958 458-1315 limits assumed, chain 2 of 2) above
Assay [10] shares this target. The assay can be described thus: bridging ELISA: coated TeNT, SDA, biotinylated TeNT, StrepPO (bivalent binding).
Target sequence in this assay (P04958 2-457 limits assumed, chain 1 of 2): as the sequence (P04958 2-457 limits assumed, chain 1 of 2) above
Target sequence in this assay (P04958 458-1315 limits assumed, chain 2 of 2): as the sequence (P04958 458-1315 limits assumed, chain 2 of 2) above
Assay [11] shares this target. The description is as above. The source holds these as a separate data set.
Target sequence in this assay (P04958 2-457 limits assumed, chain 1 of 2): as the sequence (P04958 2-457 limits assumed, chain 1 of 2) above
Target sequence in this assay (P04958 458-1315 limits assumed, chain 2 of 2): as the sequence (P04958 458-1315 limits assumed, chain 2 of 2) above
Assay [12] addresses T5, dog albumin (dog Alb) (dog, UniProt P49822 25-608).
T5 construct: also called Canine albumin
The assay is described as follows: ELISA: coated dog Alb, anti-his6 PO.

Assay [13] concerns the target T5, dog albumin (dog Alb). The assay is described as follows: ELISA: coated dog Alb, anti-his6 PO. This is another data set of the same source.
Assay [14] addresses T3, tetanus neurotoxin (TeNT), authentic …. The assay is described as follows: ELISA: directly coated TeNT, goat anti-llama Ig PO.
Target sequence in this assay (P04958 2-457 limits assumed, chain 1 of 2): as the sequence (P04958 2-457 limits assumed, chain 1 of 2) above
Target sequence in this assay (P04958 458-1315 limits assumed, chain 2 of 2): as the sequence (P04958 458-1315 limits assumed, chain 2 of 2) above
The target is the same in assay [15]. The assay can be described thus: GT1b-TeNT inhibition ELISA.
Assay [16] shares this target. The assay is described as follows: ELISA: directly coated TeNT, goat anti-llama Ig PO. The source holds these as a separate data set.
Assay [17] has the same target. The assay can be described thus: GT1b-TeNT inhibition ELISA. The source holds these as a separate data set.
The target is the same in assay [18]. The assay can be described thus: bridging ELISA: coated dog IgG, SDA, biotinylated TeNT, StrepPO.
Assay [19] concerns the target dog IgG (chrompure dog IgG) (dog).
Assay [20] shares this target. This is another data set of the same source.
Assay [21] addresses T3, tetanus neurotoxin (TeNT), authentic …. The assay can be described thus: BLI (Octet Red96): biotinylated TeNT on SA sensor, SDA as analyte. (In BLI a coated tip is dipped into the sample, and binding shifts an interference pattern.)
Assay [22] has the same target. The assay is described as follows: bridging ELISA: coated dog IgG, SDA, biotinylated TeNT, StrepPO. The source holds these as a separate data set.
Assay [23] has the same target. The assay can be described thus: cell-based or functional assay.

One may read the Kd as the equilibrium constant for the complex coming apart. Low values mean higher affinity, high ones lower affinity. What is called koff is a measure of how fast the partners let go of each other. Broadly, the kon is the rate constant with which the complex forms.

T4 sequence (P35747 25-607 limits assumed): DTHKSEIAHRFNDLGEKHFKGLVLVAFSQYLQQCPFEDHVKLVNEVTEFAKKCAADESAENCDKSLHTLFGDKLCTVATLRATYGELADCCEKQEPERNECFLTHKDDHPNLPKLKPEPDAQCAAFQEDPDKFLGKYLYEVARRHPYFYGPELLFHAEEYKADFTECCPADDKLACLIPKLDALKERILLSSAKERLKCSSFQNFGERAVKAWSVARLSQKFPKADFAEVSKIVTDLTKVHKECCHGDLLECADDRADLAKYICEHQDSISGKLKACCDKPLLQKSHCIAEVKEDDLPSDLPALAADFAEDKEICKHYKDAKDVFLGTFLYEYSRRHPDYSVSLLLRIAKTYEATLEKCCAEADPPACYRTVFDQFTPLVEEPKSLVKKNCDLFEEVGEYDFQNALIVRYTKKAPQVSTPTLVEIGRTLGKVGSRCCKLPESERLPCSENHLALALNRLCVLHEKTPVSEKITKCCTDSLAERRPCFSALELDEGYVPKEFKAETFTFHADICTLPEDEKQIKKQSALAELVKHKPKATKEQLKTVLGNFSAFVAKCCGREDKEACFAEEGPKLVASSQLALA
T5 sequence (P49822 25-608 limits assumed): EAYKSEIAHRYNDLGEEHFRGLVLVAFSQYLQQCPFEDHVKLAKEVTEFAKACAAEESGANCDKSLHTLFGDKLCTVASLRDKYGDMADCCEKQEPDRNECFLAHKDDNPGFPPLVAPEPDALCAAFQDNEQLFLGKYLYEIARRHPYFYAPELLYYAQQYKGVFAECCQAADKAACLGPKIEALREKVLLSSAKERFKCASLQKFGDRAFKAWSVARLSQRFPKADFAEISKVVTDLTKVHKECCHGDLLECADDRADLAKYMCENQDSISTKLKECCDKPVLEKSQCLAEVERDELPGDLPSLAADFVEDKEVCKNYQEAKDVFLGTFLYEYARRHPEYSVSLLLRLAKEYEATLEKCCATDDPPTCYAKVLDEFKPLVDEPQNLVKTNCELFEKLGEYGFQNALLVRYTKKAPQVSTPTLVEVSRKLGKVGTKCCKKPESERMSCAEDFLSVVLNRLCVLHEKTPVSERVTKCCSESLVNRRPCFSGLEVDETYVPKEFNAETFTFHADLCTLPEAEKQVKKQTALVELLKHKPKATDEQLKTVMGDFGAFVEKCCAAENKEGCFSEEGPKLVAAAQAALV

B1: SVT03 (VHH)
VHH: QVQLQQSGGGSVQTGDSLTLSCTASGGSLNSYFVGWFRQSGGKEREFVSVIARTGRSTSYADSVKGRFTISRDNAANTVFLTMNNLRPDDTAIYYCAAVGRPGVLHLTQSYDYWGQGTQVTVSS
Consider B1, for which the “absorbance at 450 nm” value in assay [1] was found to be 1.29 A450; in assay [2], 0.091 A450; in assay [4] it was 0.061 A450; in [5] it was 0.534 A450. In addition, the binding result in [3] is on record as “no binding (tested: tenfold diluted supernatant)”.

B2: SVT03L (VHH)
VHH: B1 VHH
notes: yeast-produced
B2: the binding result in [3] was “no binding”.

B3: SVT02 (VHH)
VHH: QVQLQQSGGGSVQAGGSLRLSCVGPQRTFSTYGMGWFRQAPGKEREFVAGINYKGDTTYYADSVKGRFTISRDNAKNTLYLQMDSLKPEDRAVYQCARKGGLGGDYRDAGQYRYWGQGTQVTVSS
As to B3, the “absorbance at 450 nm” value came out at 1.34 A450 in assay [1], 0.078 A450 in [2], 0.06 A450 in [4] and 0.511 A450 in assay [5]. In addition, the binding result in assay [3] was “no binding (tested: tenfold diluted supernatant)”.

B4: SVT02L (VHH)
VHH: B3 VHH
notes: yeast-produced
On to B4, for which, in assay [3], the binding result is “no binding”.

B5: SVT15-3FW4M-GS2-SVA12M2-H6 (bispecific antibody)
chain: QVQLQESGGGLVQTGGSLRLSCRASGRAFANYHFGWFRQAPGKDREFVASISWKGGSTYYANFALGRFTSSVDRAESSVYLQMSGLTPEDTATYYCAAHDGGDWNYHTGMDYWGQGTQVTVSSGGGGSGGGSEVQLVESGGGLVQAGGSLRLSCAASGRTFSYYPMAWFRQAPGQEREFVAAIIGADTTYYADSLKGRFTISRDNAKNMVYLQMNSLKPEDTAVYYCAARNTYWSDVYYREGQYTNWGQGTQVTVSSHHHHHH
For B5, the “Effective SDA Concentration at A450 0.15” value in assay [6] came out at 8 ng/mL; in assay [14], 2 ng/mL. The maximal absorbance value in assay [7] is 1.34 A450; in assay [9], 1.35 A450; in assay [10], 0.64 A450; with dog albumin (dog Alb) [12] it was 1.55 A450; in [16], 1.36 A450. In addition, the “Effective SDA Concentration at A450 0.7” value in [8] came out at 3.9 ng/mL. In assay [11], the “Effective SDA Concentration at A450 0.3” value came out at 33 ng/mL. For the same molecule, the “Effective SDA Concentration at A450 0.2” value with dog albumin (dog Alb) [13] worked out at 76 ng/mL. Also, in [15], the “Effective SDA Concentration at A450 0.56” value is 78 ng/mL. The “minimal absorbance value (GT1b-TeNT inhibition)” value in assay [17] was found to be 0.15 A450.

B6: SVT15-3FW4M-GS2-SVG13M4-H6 (bispecific antibody)
chain: QVQLQESGGGLVQTGGSLRLSCRASGRAFANYHFGWFRQAPGKDREFVASISWKGGSTYYANFALGRFTSSVDRAESSVYLQMSGLTPEDTATYYCAAHDGGDWNYHTGMDYWGQGTQVTVSSGGGGSGGGSEVQLVESGGGLVQPGGSLRLSCEASGFTFDDYGMSWVRQAPGKGLEWVSSLTPNGGSTYYADSVKGRFTISRDNAKNTLYLQMNSLKPEDTALYYCAKNSYYGAMDYWGQGTQVTVSSHHHHHH
On to B6, for which the figures for the “Effective SDA Concentration at A450 0.15” value in assay [6] and in [14] were 4.9 ng/mL and 2 ng/mL, respectively. Further, the maximal absorbance value in [18] was found to be 1.47 A450; in [9] it was 1.51 A450; in assay [10] it was 0.78 A450; in assay [19], 1 A450; in assay [16], 1.16 A450. For the same molecule, the entries for the “Effective SDA Concentration at A450 0.3” value in assay [11] and in assay [22] were 23 ng/mL and 2.2 ng/mL, respectively. Besides, the “Effective SDA Concentration at A450 0.2” value in assay [20] was 63 ng/mL. Besides, the “Effective SDA Concentration at A450 0.56” value in assay [15] came to 77 ng/mL. In assay [21], this molecule gave a Kd of 0.0158 nM. For the same molecule, the koff in assay [21] amounted to 6.77e-06 s⁻¹. This molecule also had a kon in [21] of 429000 M⁻¹ s⁻¹. Moreover, the “minimal absorbance value (GT1b-TeNT inhibition)” value in [17] worked out at 0.13 A450. The Endpoint dilution factor in [23] turned out to be 2.8. The “Potency IU/mg” value in assay [23] came out at 1.21 IU/mg. The “SDA concentration providing full protection” value in assay [23] is 500 nM.

B7: SVT06-GS2-SVA12M2-H6 (bispecific antibody)
chain: QVQLQESGGGSVQAGGSLRLSCTASELSYDDYTIAWFRRAAGEGRVEDGEGVASITKSYDRAYDNKINYGHSVKGRFTISRDNAKNTVYLQMTDLLPSDTAVYYCALDITPPGGVGASLTEGFLFDYWGQGTQVTVSSGGGGSGGGSEVQLVESGGGLVQAGGSLRLSCAASGRTFSYYPMAWFRQAPGQEREFVAAIIGADTTYYADSLKGRFTISRDNAKNMVYLQMNSLKPEDTAVYYCAARNTYWSDVYYREGQYTNWGQGTQVTVSSHHHHHH
Regarding B7, the results for the “Effective SDA Concentration at A450 0.15” value in assay [6] and in assay [14] were 3.5 ng/mL and 1.1 ng/mL, respectively. Also, the maximal absorbance value amounted to 1.47 A450 in assay [7]; 1.59 A450 in assay [9]; 0.66 A450 in assay [10]; 1.67 A450 with dog albumin (dog Alb) [12]; 1.21 A450 in [16]. Moreover, in assay [8], the “Effective SDA Concentration at A450 0.7” value was found to be 1.5 ng/mL. Moreover, the “Effective SDA Concentration at A450 0.3” value in [11] was 19 ng/mL. Besides, the “Effective SDA Concentration at A450 0.2” value with dog albumin (dog Alb) [13] was 39 ng/mL. The “Effective SDA Concentration at A450 0.56” value in assay [15] came out at 55 ng/mL. Also, in assay [21], the Kd came out at 0.151 nM. Besides, the koff in [21] turned out to be 8.9e-05 s⁻¹. This molecule came in with a kon in assay [21] of 591000 M⁻¹ s⁻¹. Also, in assay [17], the “minimal absorbance value (GT1b-TeNT inhibition)” value is 0.18 A450.

B8: SVT02-GS2-SVA12M2-H6 (bispecific antibody)
chain: QVQLQQSGGGSVQAGGSLRLSCVGPQRTFSTYGMGWFRQAPGKEREFVAGINYKGDTTYYADSVKGRFTISRDNAKNTLYLQMDSLKPEDRAVYQCARKGGLGGDYRDAGQYRYWGQGTQVTVSSGGGGSGGGSEVQLVESGGGLVQAGGSLRLSCAASGRTFSYYPMAWFRQAPGQEREFVAAIIGADTTYYADSLKGRFTISRDNAKNMVYLQMNSLKPEDTAVYYCAARNTYWSDVYYREGQYTNWGQGTQVTVSSHHHHHH
Turning to B8, the maximal absorbance value came out at 1.1 A450 in assay [7] and 1.91 A450 with dog albumin (dog Alb) [12]. For the same molecule, the “Effective SDA Concentration at A450 0.7” value in assay [8] came to 11 ng/mL. Besides, the “Effective SDA Concentration at A450 0.2” value with dog albumin (dog Alb) [13] amounted to 13 ng/mL.
